Experiment [1] deals with T1, HLA-A*02:01/MAGE-A4 complex (human, UniProt P04439 25-299 at identity 0.94); P61769 21-119).
T1 construct: Coated on ELISA plates and on a streptavidin SPR chip; a biotin tag is not described; also called HLA-A2/MAGE-A4 complex; pMHC-MAGE-A4
Kind of experiment: not stated in the sentence (SPR is described in Example 7).

For experiment [2], the target named is CD3 heterodimer (Acro Biosystems) (UniProt P07766 23-126). The experiment is described as follows: not stated in the sentence (SPR on a CD3 heterodimer chip is described in Example 7).
CD3 heterodimer (Acro Biosystems), sequence (P07766 23-126, one chain of several): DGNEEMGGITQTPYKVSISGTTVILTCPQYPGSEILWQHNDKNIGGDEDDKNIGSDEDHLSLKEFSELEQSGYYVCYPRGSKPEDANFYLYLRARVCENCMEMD

B1: M1048 (bispecific antibody)
chain 1: EVQLVESGGGLVQPGGSLRLSCAASGFTFSTYAMNWVRQAPGKGLEWVGRIRSKYNNYATYYADSVKGRFTISRDDSKNTLYLQMNSLRAEDTAVYYCVRHGNFGDSYVSWFAYWGQGTLVTVSSASTKGPSVFPLAPSSKSTSGGTAALGCLVKDYFPEPVTVSWNSGALTSGVHTFPAVLQSSGLYSLSSVVTVPSSSLGTQTYICNVNHKPSNTKVDKRVEPKSCGGGGSSYELTQPPSVSVSPGQTASITCTADTLSRSYASWYQQKPGQSPVLVIYRDTSRPSGIPERFSGSNSGNTATLTISGTQAMDEADYYCATRPSSGSNFQLFGGGTKLTVLGGGGGGSGGGGSGGGGSGGGGSESQVLESGGGSVQPGGSLRLSCTVSGFSLSNYAMSWVRQAPGKGLEYIGIVSSGGTTYYASWAKGRFTISKDTSKNTVYLQMNSLRAEDTASYYCAKDLYYGPTTYSAFNLWGQGTSVTVSS
chain 2: QAVVTQEPSLTVSPGGTVTLTCGSSTGAVTTSNYANWVQQKPGKSPRGLIGGTNKRAPGVPARFSGSLLGGKAALTISGAQPEDEADYYCALWYSNHWVFGGGTKLTVLGQPKAAPSVTLFPPSSEELQANKATLVCLISDFYPGAVTVAWKADSSPVKAGVETTTPSKQSNNKYAASSYLSLTPEQWKSHRSYSCQVTHEGSTVEKTVAPTECSGGGGSSYELTQPPSVSVSPGQTASITCTADTLSRSYASWYQQKPGQSPVLVIYRDTSRPSGIPERFSGSNSGNTATLTISGTQAMDEADYYCATRPSSGSNFQLFGGGTKLTVLGGGGGGSGGGGSGGGGSGGGGSESQVLESGGGSVQPGGSLRLSCTVSGFSLSNYAMSWVRQAPGKGLEYIGIVSSGGTTYYASWAKGRFTISKDTSKNTVYLQMNSLRAEDTASYYCAKDLYYGPTTYSAFNLWGQGTSVTVSS
Regarding B1, the Kd in experiment [1] was 0.25 nM; in experiment [2], 10 nM.

Source of the values: US20250144141A1 (CDR LIFE, published 2025).
